The values that follow come from paper PMC8930183, “Structure of the Pf12 and Pf41 heterodimeric complex of Plasmodium falciparum 6-cysteine proteins” (FEMS Microbes, 2022).

B1: Pf41 D1D2 (residues 21-368), untagged [Plasmodium falciparum] / octa-histidine tagged Pf12 D1D2 (residues 28-304) [Plasmodium falciparum] (parent complex)
chain 1: KSHKCDFTKEKYLLSGEKEVSCEIDANPSDDITFICPNKIDSLCFHTVNISKNINQNKSTMSIQDLLYGSVVYGNTLFISPYVRTNTPFYCFCNLDTVTIQKFLKINRFLKDDDELSEADVMKHLKGGNVSEAQADEYLNKALNRFKKMKDLSKFFNDQADNTTKLNLPKSLNIPNDILNYDVYNSSNNRNDIVVKDEVTNKQIISKRGIMSVFVRSNNNVIKGCDFGNNNKNYFSHPISVAGKVNNKVCKIQGKPGELVGFKCAFEENGKVEPPNCFDQVLHKNKVTDLKTLIPGYASYTNKHSSKYPYYLKIPHFVNEQYTIQCKCKSNNSQNEYTFELDIQPGES
chain 2: NLTCDFNDVYKLEFHPNQQTSVTKLCNLTPNVLEKVTIKCGSDKLNYNLYPPTCFEEVYASRNMMHLKKIKEFVIGSSMFMRRSLTPNKINEVSFRIPPNMMPEKPIYCFCENKKTITINGSNGNPSSKKDIINRGIVEIIIPSLNEKVKGCDFTTSESTIFSKGYSINEISNKSSNNQQDIVCTVKAHANDLIGFKCPSNYSVEPHDCFVSAFNLSGKNENLENKLKLTNIIMDHYNNTFYSRLPSLISDNWKFFCVCSKDNEKKLVFTVEASISS
B2: Pf12 D1D2 (residues 28-304), untagged [Plasmodium falciparum] / octa-histidine tagged Pf41 D1D2 (residues 21-368) [Plasmodium falciparum] (parent complex)
chain 1: B1 chain 2
chain 2: B1 chain 1

The variants in one experiment derive from B1. Nature of the experiment: BLI; mutant at 1000 nM, 500 nM, and 250 nM; binding to immobilised WT Pf12; parent: 100; read off a plot. A general note: In BLI a coated tip is dipped into the sample, and binding shifts an interference pattern.
Take chain 1 E320A: the percent of parent was approximately 103 % WT. Still for that read-out and setting: the figure for chain 1 E347A is approximately 18 % WT; for chain 1 L139A it is approximately 4 % WT; for chain 1 F317A it is approximately 1 % WT. Same read-out and setting: next, chain 1 N319A: approximately 36 % WT. The same measure, in the same setting: the figure for chain 1 F146A is approximately 37 % WT; for chain 1 F146L it is approximately 122 % WT; for chain 1 H316A it is approximately 75 % WT. On to chain 1 L143A, for which the percent of parent is approximately 1 % WT.

The variants in the next experiment derive from B2. Nature of the experiment: BLI; mutant at 1000 nM, 500 nM, and 250 nM; binding to immobilised WT Pf41; parent: 100; read off a plot.
As to chain 1 F214A, the percent of parent was approximately 12 % WT. The same measure, in the same setting: the figure for chain 1 F214L is approximately 67 % WT. Turning to chain 1 R82A, the percent of parent is approximately 9 % WT. On the same count and under the same terms, next, chain 1 R82E: approximately 0 % WT.

For the variant chain 1 M81A, the percent of parent is approximately 22 % WT. Take chain 1 F256A: the percent of parent was approximately 4 % WT. On the same count and under the same terms, the figure for chain 1 M79A is approximately 27 % WT; for chain 1 R83A it is approximately 38 % WT; for chain 1 R96E it is approximately 3 % WT.

In the case of chain 1 R96A, the percent of parent is approximately 55 % WT. Still for that read-out and setting: next, chain 1 H207A: approximately 116 % WT; chain 1 Y237A: approximately 2 % WT.
